Results from PMC3726423, “Comparative Study of Two Box H/ACA Ribonucleoprotein Pseudouridine-Synthases: Relation between Conformational Dynamics of the Guide RNA, Enzyme Assembly and Activity” (PLoS ONE, 2013).

T1: aCBF5 (P. abyssi, UniProt Q9V1A5 1-334)
T1 construct: aCBF5, archaeal H/ACA sRNP pseudouridine synthase, P. abyssi; also called pseudouridine synthase aCBF5; source: purified recombinant proteins
T1 sequence (looked up): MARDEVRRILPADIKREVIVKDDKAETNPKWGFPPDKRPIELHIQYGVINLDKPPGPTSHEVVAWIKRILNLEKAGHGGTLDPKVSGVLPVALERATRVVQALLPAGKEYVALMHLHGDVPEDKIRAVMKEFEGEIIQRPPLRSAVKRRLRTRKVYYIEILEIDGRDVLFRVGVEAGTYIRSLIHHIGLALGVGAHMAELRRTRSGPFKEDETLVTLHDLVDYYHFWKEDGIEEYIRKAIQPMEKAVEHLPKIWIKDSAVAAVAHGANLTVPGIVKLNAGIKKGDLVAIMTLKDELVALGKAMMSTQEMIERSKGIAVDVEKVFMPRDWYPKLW


Target: T1, aCBF5
Assay: native gel or EMSA; 32P 5' end-labelled sRNA Pab21 or Pab91 (~50 fmol) incubated with the proteins (200 nM each) in buffer D (150 mM KCl, 1.5 mM MgCl2, 0.2 mM EDTA, 20 mM HEPES pH 7.9) at 65°C for 10 min; non-denaturing polyacrylamide gel; the proteins are seen only through the shift of the labelled sRNA
Conditions: both partners purified

Row | binding result | Binder
1 | binds | aNOP10 (natural protein, P. abyssi, UniProt Q9V0E3 1-60, looked up, aNOP10, archaeal H/ACA sRNP core protein, P. abyssi; source: purified recombinant proteins) MRFRIRKCPKCGRYTLKETCPVCGEKTKVAHPPRFSPEDPYGEYRRRLKRELLGIGRKEK
2 | binds | aNOP10 Y41A/Y44A (natural protein, P. abyssi, UniProt Q9V0E3 1-60, looked up, aNOP10, P. abyssi, with two alanine substitutions in helix alpha1; also called aNOP10 mutant Y41A/Y44A; source: purified recombinant proteins) MRFRIRKCPKCGRYTLKETCPVCGEKTKVAHPPRFSPEDPAGEARRRLKRELLGIGRKEK
